The values that follow come from patent publication WO2013011062A2 (dated 2013).

Experiment [1] concerns the target T1, Human collagen I (human, UniProt P02452 162-1218; P08123 80-1119).
T1 construct: Bought (Sigma C5483); also called ColI; collagen 1
In words: SPR. In general terms: SPR reads the build-up and loss of mass on a sensor chip optically.

Experiment [2] addresses T2, Human OSCAR (osteoclast-associated receptor), full length, on cells (human).
T2 construct: also called hOSCAR; HEK-OSCAR cells
T2 chain: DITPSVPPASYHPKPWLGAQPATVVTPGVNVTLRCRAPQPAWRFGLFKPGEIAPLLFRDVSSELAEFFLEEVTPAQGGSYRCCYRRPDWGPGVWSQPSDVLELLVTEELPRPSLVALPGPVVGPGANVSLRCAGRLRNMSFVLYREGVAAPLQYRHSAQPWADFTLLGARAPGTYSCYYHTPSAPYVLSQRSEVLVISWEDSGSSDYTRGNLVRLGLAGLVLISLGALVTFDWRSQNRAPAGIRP
Nature of the experiment: flow cytometry on human monocytes (CD14+ PBMC), Alexa Fluor 647-labelled mAb at 0.5 ug/ml. On the technique in general: Flow cytometry measures light scatter and fluorescence of single cells or particles in a stream.

As usually defined, the Kd is the concentration at which binding is half-saturated. Read a low Kd as tighter binding.

T1 sequence (P02452 162-1218, chain 1 of 2): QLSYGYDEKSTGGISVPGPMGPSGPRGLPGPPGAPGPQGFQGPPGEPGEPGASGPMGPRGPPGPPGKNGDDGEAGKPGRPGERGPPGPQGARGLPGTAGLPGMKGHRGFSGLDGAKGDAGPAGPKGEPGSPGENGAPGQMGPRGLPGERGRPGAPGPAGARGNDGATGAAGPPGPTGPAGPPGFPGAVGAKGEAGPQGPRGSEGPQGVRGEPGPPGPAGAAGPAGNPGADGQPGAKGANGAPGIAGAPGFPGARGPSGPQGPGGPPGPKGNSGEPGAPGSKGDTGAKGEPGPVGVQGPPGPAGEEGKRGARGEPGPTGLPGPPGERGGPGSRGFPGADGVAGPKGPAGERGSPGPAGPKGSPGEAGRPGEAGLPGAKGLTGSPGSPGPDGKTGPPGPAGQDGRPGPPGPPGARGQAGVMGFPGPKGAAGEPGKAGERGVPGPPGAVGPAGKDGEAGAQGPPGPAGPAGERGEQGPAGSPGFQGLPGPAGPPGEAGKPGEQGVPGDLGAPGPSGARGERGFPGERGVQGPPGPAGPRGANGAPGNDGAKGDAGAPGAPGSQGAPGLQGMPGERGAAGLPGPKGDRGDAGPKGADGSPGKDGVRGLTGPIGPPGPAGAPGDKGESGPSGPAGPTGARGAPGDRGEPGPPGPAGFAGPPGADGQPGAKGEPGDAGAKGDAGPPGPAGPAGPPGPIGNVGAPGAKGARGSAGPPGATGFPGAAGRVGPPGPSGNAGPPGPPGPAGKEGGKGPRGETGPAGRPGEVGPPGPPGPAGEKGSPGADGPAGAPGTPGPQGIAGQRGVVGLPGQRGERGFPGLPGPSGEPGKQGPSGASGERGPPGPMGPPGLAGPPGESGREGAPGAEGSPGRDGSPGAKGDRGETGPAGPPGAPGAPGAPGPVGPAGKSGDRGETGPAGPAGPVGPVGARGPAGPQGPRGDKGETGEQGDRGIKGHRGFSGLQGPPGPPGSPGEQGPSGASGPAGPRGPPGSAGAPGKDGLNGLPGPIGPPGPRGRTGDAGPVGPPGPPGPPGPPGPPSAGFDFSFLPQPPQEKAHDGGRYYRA
T1 sequence (P08123 80-1119, chain 2 of 2): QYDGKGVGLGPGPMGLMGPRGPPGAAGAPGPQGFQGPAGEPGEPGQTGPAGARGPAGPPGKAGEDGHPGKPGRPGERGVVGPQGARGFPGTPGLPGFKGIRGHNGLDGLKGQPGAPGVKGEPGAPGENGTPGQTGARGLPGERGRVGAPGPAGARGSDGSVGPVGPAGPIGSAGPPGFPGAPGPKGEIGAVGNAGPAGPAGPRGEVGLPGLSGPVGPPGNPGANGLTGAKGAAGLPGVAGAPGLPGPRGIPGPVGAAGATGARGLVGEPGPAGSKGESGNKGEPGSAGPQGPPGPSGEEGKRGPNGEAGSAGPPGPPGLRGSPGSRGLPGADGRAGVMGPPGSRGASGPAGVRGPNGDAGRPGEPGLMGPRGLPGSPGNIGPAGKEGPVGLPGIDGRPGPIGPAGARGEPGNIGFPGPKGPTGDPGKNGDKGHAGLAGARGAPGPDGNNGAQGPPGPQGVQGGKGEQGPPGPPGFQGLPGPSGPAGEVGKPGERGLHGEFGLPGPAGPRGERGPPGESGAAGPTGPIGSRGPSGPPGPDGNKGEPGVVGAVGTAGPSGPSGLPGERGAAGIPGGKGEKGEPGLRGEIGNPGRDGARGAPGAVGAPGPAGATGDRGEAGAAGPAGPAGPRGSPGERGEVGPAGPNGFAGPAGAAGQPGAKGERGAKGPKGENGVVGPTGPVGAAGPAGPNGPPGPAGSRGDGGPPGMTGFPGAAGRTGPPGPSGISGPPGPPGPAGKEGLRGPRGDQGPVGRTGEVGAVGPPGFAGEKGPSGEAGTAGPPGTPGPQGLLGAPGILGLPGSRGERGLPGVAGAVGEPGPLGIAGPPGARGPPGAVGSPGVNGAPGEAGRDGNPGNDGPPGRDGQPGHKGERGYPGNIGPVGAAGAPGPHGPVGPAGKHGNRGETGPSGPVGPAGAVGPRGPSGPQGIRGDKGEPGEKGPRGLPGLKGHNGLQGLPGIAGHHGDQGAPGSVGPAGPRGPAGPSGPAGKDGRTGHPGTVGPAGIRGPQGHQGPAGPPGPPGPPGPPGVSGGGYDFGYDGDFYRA

B1: recombinant extracellular domain of human OSCAR (OSCAR-ECD) (receptor)
chain: DITPSVPPASYHPKPWLGAQPATVVTPGVNVTLRCRAPQPAWRFGLFKPGEIAPLLFRDVSSELAEFFLEEVTPAQGGSYRCCYRRPDWGPGVWSQPSDVLELLVTEELPRPSLVALPGPVVGPGANVSLRCAGRLRNMSFVLYREGVAAPLQYRHSAQPWADFTLLGARAPGTYSCYYHTPSAPYVLSQRSEVLVISWEDSGSSDYTR
notes: The printed entry starts with the putative signal peptide; also called Human OSCAR-ECD; OSACAR-ECD
In turn, B1 came in with a Kd in experiment [1] of 255 nM.

B2: anti-OSCAR mAb 16F56A2 (antibody, V domains shown)
VH: QVQLVQSGAEVKKPGSSVKVSCKASGGTFSNYAISWVRQAPGQGLEWMGRIIPILGIAHNAQKFQDRVTITADKSTSTAYMELSSLRSEDTAVYYCASPSSGKGLPYWFFDLWGRGTLVTVSS
VL: DIQMTQSPSFLSASVGDRVTITCRASQSISSYLNWYQQKPGKAPKLLIYAASSLQSGVPSRFSGSGSGTDFTLTISSLQPEDFATYYCQCGYSTPLTFGGGTKVEIKR
notes: Human mAb
With B2, in experiment [2], the binding result was “binds”.

B3: anti-OSCAR mAb 13F5A5 (antibody, V domains shown)
VH: EVQLVQSGAEVKKPGESLKISCKGSGYSFTSYWIVWVRQMPGKGLEWMGSIYPGDSDARYSPSFQGQVTISADKSISTAYLQWSSLKASDTAMYYCARQKITMVRGVIITPLDGMDVWGQGTTVTVSS
VL: not shown
notes: Fully human mAb (HuMab mice)
Take B3: in experiment [2], the binding result was “binds”.
